These binders were tested against T1, HLA-A*02:01 (human) (assay: UV-ligand exchange ELISA (anti-β2m), peptide exchange yield grade).
T1 construct: MHC class I monomer made peptide-receptive by UV cleavage of a UV-sensitive ligand; also called peptide-receptive MHC molecules
How it was run: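 After UV-ligand exchange, peptide–MHC monomers were diluted 100-fold and captured for 1 h at 37 °C on streptavidin-coated plates, then detected with HRP-anti-β2m (2 ug/ml, 1 h, 37 °C) and TMB, A450 nm. Exchange yield was calculated against refolded HLA-A*02:01/MLA-001 standards (15–500 ng/ml).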

First: QLYEEPDTKL [peptide QLYEEPDTKL (SEQ ID NO: 82)]
Second: WIDDTSAFV [peptide WIDDTSAFV (SEQ ID NO: 92)]
The peptide exchange yield of the first is lower: 20 to 50% for the first, 50 to 75% for the second.

First: ALSNVIHKV [peptide ALSNVIHKV (SEQ ID NO: 40)]
Second: SILQFVHMV [peptide SILQFVHMV (SEQ ID NO: 68)]
The peptide exchange yield of the first is lower: 20 to 50% for the first, 50 to 75% for the second.

LLFDAPDLRL [peptide LLFDAPDLRL (SEQ ID NO: 87)] and RLAELTVDEFL [peptide RLAELTVDEFL (SEQ ID NO: 4)] fall in the same range of peptide exchange yield: 50 to 75% for the first, 50 to 75% for the second.

First: ILDDSFKLL [peptide ILDDSFKLL (SEQ ID NO: 41)]
Second: TVDVATPSV [peptide TVDVATPSV (SEQ ID NO: 91)]
The peptide exchange yield of the first is lower: 20 to 50% for the first, 50 to 75% for the second.

Compared with FLFGYPKRL [peptide FLFGYPKRL (SEQ ID NO: 103)], YLMGFLHAV [peptide YLMGFLHAV (SEQ ID NO: 74)] is higher in peptide exchange yield: 20 to 50% for the first, 50 to 75% for the second.

YLTRHLAVL [peptide YLTRHLAVL (SEQ ID NO: 7)] and EMIENIQSV [peptide EMIENIQSV (SEQ ID NO: 75)] fall in the same range of peptide exchange yield: 20 to 50% for the first, 20 to 50% for the second.

SILDDSFKL [peptide SILDDSFKL (SEQ ID NO: 42)] and FLLGSEIKL [peptide FLLGSEIKL (SEQ ID NO: 53)] cannot be ordered by peptide exchange yield: no less than 75% for the first, 50 to 75% for the second.

First: KVFPGKISV [peptide KVFPGKISV (SEQ ID NO: 86)]
Second: YLIGEKQHYL [peptide YLIGEKQHYL (SEQ ID NO: 76)]
The peptide exchange yield of the first is lower: 20 to 50% for the first, 50 to 75% for the second.

KSMDIVLTV [peptide KSMDIVLTV (SEQ ID NO: 94)] and SLIEYEFRV [peptide SLIEYEFRV (SEQ ID NO: 89)] fall in the same range of peptide exchange yield: 50 to 75% for the first, 50 to 75% for the second.

First: SLLKRDFGA [peptide SLLKRDFGA (SEQ ID NO: 77)]
Second: GLDDRYSLV [peptide GLDDRYSLV (SEQ ID NO: 46)]
The peptide exchange yield of the first is lower: 20 to 50% for the first, 50 to 75% for the second.

ALMLQGVDLL [peptide ALMLQGVDLL (SEQ ID NO: 8)] and SMVEDITGLRL [peptide SMVEDITGLRL (SEQ ID NO: 84)] fall in the same range of peptide exchange yield: 50 to 75% for the first, 50 to 75% for the second.

GMLNEAEGKAIKL [peptide GMLNEAEGKAIKL (SEQ ID NO: 69)] and KTLGKLWRL [peptide KTLGKLWRL (SEQ ID NO: 64)] fall in the same range of peptide exchange yield: 20 to 50% for the first, 20 to 50% for the second.

Compared with YLLDYPNNLL [peptide YLLDYPNNLL (SEQ ID NO: 72)], QVDEVVDIMRV (also called QVDEVVDIMRV) [peptide … (SEQ ID NO: 80)] is lower in peptide exchange yield: 50 to 75% for the first, 20 to 50% for the second.

YLFDIAVSM [peptide YLFDIAVSM (SEQ ID NO: 73)] and GLLKPGLNVVL (also called …) [peptide GLLKPGLNVVL (SEQ ID NO: 90)] fall in the same range of peptide exchange yield: 50 to 75% for the first, 50 to 75% for the second.

LTIEDGIFEV [peptide LTIEDGIFEV (SEQ ID NO: 83)] and WLFDDGGLTL [peptide WLFDDGGLTL (SEQ ID NO: 5)] cannot be ordered by peptide exchange yield: 50 to 75% for the first, no less than 75% for the second.

ILHDINSDGVL [peptide ILHDINSDGVL (SEQ ID NO: 85)] and ILDDHLSRV [peptide ILDDHLSRV (SEQ ID NO: 9)] fall in the same range of peptide exchange yield: 20 to 50% for the first, 20 to 50% for the second.

First: ALDPELLLL [peptide ALDPELLLL (SEQ ID NO: 78)]
Second: RLWTEIPTAI [peptide RLWTEIPTAI (SEQ ID NO: 71)]
The peptide exchange yield of the first is lower: 20 to 50% for the first, 50 to 75% for the second.

VLFTDEGVPKFL [peptide VLFTDEGVPKFL (SEQ ID NO: 56)] and QVWEIQHTV [peptide QVWEIQHTV (SEQ ID NO: 51)] fall in the same range of peptide exchange yield: 20 to 50% for the first, 20 to 50% for the second.

AILDAHIEV [peptide AILDAHIEV (SEQ ID NO: 95)] and LLTDNVVKL [peptide LLTDNWKL (SEQ ID NO: 59)] cannot be ordered by peptide exchange yield: no less than 75% for the first, 50 to 75% for the second.

GLFAGLGGAGA [peptide GLFAGLGGAGA (SEQ ID NO: 37)] and NLLEKENYL [peptide NLLEKENYL (SEQ ID NO: 57)] fall in the same range of peptide exchange yield: 50 to 75% for the first, 50 to 75% for the second.

First: KLYERCEVV (also called KLYERCEVV) [peptide KLYERCEW (SEQ ID NO: 47)]
Second: MISELEVRL [peptide MISELEVRL (SEQ ID NO: 70)]
The peptide exchange yield of the first is lower: 20 to 50% for the first, 50 to 75% for the second.

First: KILVSLIEV [peptide KILVSLIEV (SEQ ID NO: 102)]
Second: ALWWGVVTV (also called ALWWGWTV) [peptide ALWWGVVTV (SEQ ID NO: 97)]
The peptide exchange yield of the first is higher: 50 to 75% for the first, 20 to 50% for the second.

First: AMADKMDMSL [peptide AMADKMDMSL (SEQ ID NO: 58)]
Second: SLESKLTSV [peptide SLESKLTSV (SEQ ID NO: 44)]
The peptide exchange yield of the first is lower: 20 to 50% for the first, 50 to 75% for the second.

Compared with KLLKLFQGV [peptide KLLKLFQGV (SEQ ID NO: 61)], SLAPTPVSA [peptide SLAPTPVSA (SEQ ID NO: 38)] is lower in peptide exchange yield: 50 to 75% for the first, 20 to 50% for the second.

Compared with GLSEGHTFQV [peptide GLSEGHTFQV (SEQ ID NO: 101)], GLDDGPDFL [peptide GLDDGPDFL (SEQ ID NO: 66)] is lower in peptide exchange yield: 50 to 75% for the first, 20 to 50% for the second.

KLLEVDLDTV [peptide KLLEVDLDTV (SEQ ID NO: 99)] and ALAELLHGA [peptide ALAELLHGA (SEQ ID NO: 45)] fall in the same range of peptide exchange yield: 50 to 75% for the first, 50 to 75% for the second.

First: KLDIKVETV [peptide KLDIKVETV (SEQ ID NO: 88)]
Second: KLYSRLVYV [peptide KLYSRLVYV (SEQ ID NO: 96)]
The peptide exchange yield of the first is higher: no less than 75% for the first, 20 to 50% for the second.

SLAADQLLKL [peptide SLAADQLLKL (SEQ ID NO: 79)] and YLAPENGYL [peptide YLAPENGYL (SEQ ID NO: 62)] fall in the same range of peptide exchange yield: 20 to 50% for the first, 20 to 50% for the second.

First: ALDSSNSMQTI [peptide ALDSSNSMQTI (SEQ ID NO: 52)]
Second: ALLNGEYLLAA [peptide ALLNGEYLLAA (SEQ ID NO: 54)]
The peptide exchange yield of the first is lower: 20 to 50% for the first, 50 to 75% for the second.

FLAELPGSLSL [peptide FLAELPGSLSL (SEQ ID NO: 6)] and SLNDLEKDVMLL [peptide SLNDLEKDVMLL (SEQ ID NO: 67)] fall in the same range of peptide exchange yield: 50 to 75% for the first, 50 to 75% for the second.

Compared with AMNGKSFSV [peptide AMNGKSFSV (SEQ ID NO: 98)], TLMAEMHVV [peptide TLMAEMHW (SEQ ID NO: 50)] is higher in peptide exchange yield: 20 to 50% for the first, 50 to 75% for the second.

Compared with ALLSQQTHL [peptide ALLSQQTHL (SEQ ID NO: 81)], FLDASDPAL [peptide FLDASDPAL (SEQ ID NO: 48)] is lower in peptide exchange yield: 50 to 75% for the first, 20 to 50% for the second.

KLLDLTVRI [peptide KLLDLTVRI (SEQ ID NO: 35)] and GLLESPSIFNFTA [peptide GLLESPSIFNFTA (SEQ ID NO: 36)] fall in the same range of peptide exchange yield: 50 to 75% for the first, 50 to 75% for the second.

First: TLDAAQPRV [peptide TLDAAQPRV (SEQ ID NO: 43)]
Second: SLDDFLATA [peptide SLDDFLATA (SEQ ID NO: 100)]
The peptide exchange yield of the first is lower: 20 to 50% for the first, 50 to 75% for the second.

First: VLDEDEPRFL [peptide VLDEDEPRFL (SEQ ID NO: 60)]
Second: SLQELRLLL [peptide SLQELRLLL (SEQ ID NO: 93)]
The peptide exchange yield of the first is lower: 20 to 50% for the first, no less than 75% for the second.

In the case of KLFSILSTV [peptide KLFSILSTV (SEQ ID NO: 63)], the peptide exchange yield is reported as 20 to 50%.

— patent publication US20230212244A1 (IMMATICS BIOTECHNOLOGIES, published 2023)
